Test results as given in patent US6461832B2, “Method of detecting procarboxypeptidase A and carboxypeptidase A levels in biological fluids” (priority 1997, dated 2002).
Where “and” joins values, the source holds several entries; their conditions need not be identical. Identical values can stand only once.

Legend:
carboxypeptidase A (CPA) = target: T1, carboxypeptidase A (CPA) (Homo sapiens, UniProt P15085); conditions: CPA specific inhibitor; reported values (Byers and Wolfenden 1973; Peterson et al. 1976); cited from earlier work
T1 sequence (P15085 111-419): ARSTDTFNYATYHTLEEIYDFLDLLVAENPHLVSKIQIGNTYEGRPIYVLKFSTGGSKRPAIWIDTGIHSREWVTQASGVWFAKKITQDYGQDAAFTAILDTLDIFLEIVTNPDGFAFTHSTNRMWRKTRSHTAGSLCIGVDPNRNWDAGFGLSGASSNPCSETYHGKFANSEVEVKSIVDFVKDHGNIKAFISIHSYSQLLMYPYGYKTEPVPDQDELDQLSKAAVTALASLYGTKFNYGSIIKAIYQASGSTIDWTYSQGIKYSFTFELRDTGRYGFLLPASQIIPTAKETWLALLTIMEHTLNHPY

[1] = tested on: procarboxypeptidase A (PCPA) in human serum; experiment: Activation of PCPA in human serum with clostripain, total CPA activity; assay type: biochemical; conditions: sera from four healthy individuals and one with pancreatitis
Protocol: In the present invention, the protease clostripain was added to activate any PCPA in the biological fluid so that total CPA could be measured.
Approximately 3 mg (500 units) of lyophilized clostripain was dissolved in 1 ml of 10 mM Tris buffer (pH 8.0) along with CaCl2 and Cleland's Reagent at final concentrations of 20 mM and 1 mM, respectively. This mixture was incubated at room temperature for approximately 2 hours. This solution was then added to serum in concentrations ranging from approximately 50 to 500 units of clostripain/ml of serum. One unit was defined as the amount of clostripain which could cleave one micromole of Nα-benzoyl arginine ethyl ester (BAEE) in one minute. Determination of PCPA levels in blood donor samples was performed with 250 units of clostripain per ml serum. The standard serum volume was 0.013 ml serum per ml total solution. This mixture was incubated for five minutes at 37° C., after which time Ellman's Reagent was added at the standard concentration to eliminate clostripain as it quickly derivatizes all sulfhydryl groups in the mixture. From this point, the standard assay as described in Example 2 was followed.

O=C(O)CC(Cc1ccccc1)C(=O)O (racemic) [α-benzylsuccinic acid]
Ki (carboxypeptidase A (CPA)): 1 µM and 1.6 µM

B1: clostripain: protease added to activate PCPA in the biological fluid (protein, UniProt P09870 51-181; P09870 191-526, looked up)
Clostripain light chain: NKNQKVTIMYYCDADNNLEGSLLNDIEEMKTGYKDSPNLNLIALVDRSPRYSSDEKVLGEDFSDTRLYKIEHNKANRLDGKNEFPEISTTSKYEANMGDPEVLKKFIDYCKSNYEADKYVLIMANHGGGAR
Clostripain heavy chain: AICWDDSNLDKNGEADCLYMGEISDHLTEKQSVDLLAFDACLMGTAEVAYQYRPGNGGFSADTLVASSPVVWGPGFKYDKIFDRIKAGGGTNNEDDLTLGGKEQNFDPATITNEQLGALFVEEQRDSTHANGRYDQHLSFYDLKKAESVKRAIDNLAVNLSNENKKSEIEKLRGSGIHTDLMHYFDEYSEGEWVEYPYFDVYDLCEKINKSENFSSKTKDLASNAMNKLNEMIVYSFGDPSNNFKEGKNGLSIFLPNGDKKYSTYYTSTKIPHWTMQSWYNSIDTVKYGLNPYGKLSWCKDGQDPEINKVGNWFELLDSWFDKTNDVTGGVNHYQW
CPA activities after activation, compared with trypsin [1]: significantly higher than the maximum values that could be obtained when using trypsin
CPA activity loss at supramaximal concentrations of activating protease ([1]; unlike trypsin): only slight CPA activity losses
